The text below walks through data of the supplement of paper PMC12455559.

± gives the standard deviation of the averaged measurements.

Series [1] is described as follows: melting temperature (DSF); higher = more thermostable. An outline of the steps: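 After expression in E. coli C41(DE3), the candidate enzymes were bound to nickel beads and released with SUMO protease. Their melting temperature was found by differential scanning fluorimetry with Sypro Orange on a Bio-Rad CFX96. Each sealed PCR plate well held 45 μL enzyme (0 to 0.3 mg/mL) plus 5 μL 5X dye, and fluorescence was read for 250 cycles from 25 °C at 0.3 °C per cycle (ramp 0.3 °C/s).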

Series [2] can be described thus: purified protein yield per well (BCA); higher = higher soluble expression. An outline of the steps: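 Purified protein yield per well is reported, as measured by the Pierce Rapid Gold BCA kit. The enzymes came from E. coli C41(DE3) autoinduction cultures of 2 mL with 100 µg/mL kanamycin, held at 37 °C for 2 h and 18 °C for 40 h, then lysed and purified on Ni-charged magnetic beads with SUMO protease release. The detection threshold is 25 ug (0.1 mg/mL), and lower values are under it.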

Series [3] in a line: PET hydrolysis, aromatic products released after 48 h (umol product/mg enzyme); higher = more PET depolymerization activity. An outline of the steps:
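PET hydrolysis activity was taken as the aromatic product in the supernatant and expressed per mg enzyme. This product was measured by absorbance at 260 and 280 nm against buffer blanks. Each reaction held 5 μg (50 μL) of tagless, SUMO-cleaved candidate enzyme purified on nickel beads, plus 3.5 mg amorphous PET film or crystalline PET powder in 450 μL buffer: 50 mM NaCitrate (pH 4.5, 5.5), 50 mM NaPhosphate (pH 6.5, 7.5) or glycine (pH 8.5). Plates were sealed and left 48 h at 40 or 60 °C without shaking.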

Where [4] appears, read: substrate: cryPow, 40 °C, pH 4.5.
Where [5] appears, read: substrate: cryPow, 40 °C, pH 5.5.
[6] abbreviates: substrate: cryPow, 40 °C, pH 6.5.
Setting [7] is: substrate: cryPow, 40 °C, pH 7.5.
Setting [8] is: substrate: aFilm, 40 °C, pH 4.5.
[9] abbreviates: substrate: aFilm, 40 °C, pH 5.5.
Setting [10] is: substrate: aFilm, 40 °C, pH 6.5.
The mark [11] stands for this setting: substrate: aFilm, 40 °C, pH 7.5.
Where [12] appears, read: substrate: aFilm, 60 °C, pH 4.5.
The mark [13] stands for this setting: substrate: aFilm, 60 °C, pH 5.5.
[14] abbreviates: substrate: aFilm, 60 °C, pH 6.5.
Where [15] appears, read: substrate: aFilm, 60 °C, pH 7.5.
Setting [16] is: substrate: cryPow, 60 °C, pH 4.5.
Where [17] appears, read: substrate: cryPow, 60 °C, pH 5.5.
The mark [18] stands for this setting: substrate: cryPow, 60 °C, pH 6.5.
The mark [19] stands for this setting: substrate: cryPow, 60 °C, pH 7.5.
Setting [20] is: substrate: cryPow, 40 °C, pH 8.5.

In series [1], “AAAAGRADQRGPDPSVAGVAATYGPFATAQLTVPAGNGFNGGYIYYPTDTSLGTWGAVAIVPGYSALFANEEAWMGPRLASFGFVVIGIETTTRTDGADARATQLLAALDYLTQRSPVRDRVDPGRLAVMGHSAGGAGALLAAMRRPSLRAVVGLAPGSPTGLSSLSTDVVPTLFVGGQQDPTVTPSYLDNLYATLPASTQSAYVQLGGADHLFFTRANDVEIRRLVPWLKLFLDGDTRYTQFMCPTTPDTTGVSRYSAKCPLVPPGGPTGSASPSSPGASNSPSSPPASSSAPGAACVATYRTVGQWSGGFQGEVTVTAGGRPVNGWTVRWALGSGQAVSQLWNGALSTSGSAVSVRNVSYNGALAASASTTFGFLGSGTPSTPALSCTSP [ESM041]” displayed a melting temperature of 47.8 C. For the same sequence, the “purified protein yield per well” value in series [2] was 106 µg. Also, the PET hydrolysis in series [3] (setting [4]), in series [3] (setting [5]), in series [3] (setting [6]) and in series [3] (setting [7]) was less than 3 each time.

“MAADNPYQRGPNPTSASVAASRGTFATAELSVPRGNGFGGGKIYYPTDTTQGTFGAIAIVPGYTATWAAEGAWMGHWLASFGFVVIGIDTNSRNDNDTARGTQLLAALDYLTQRSSVRGRVDAKRLAVMGHSMGGGGALVAARQRPSLKAAVGLAPFKPSGPPSADRVPTMVIAGQRDGTVTPSYVDGLYRAIPAGTEKAYLEFAGAGHAFPTRPNPLQMRLVIPWLKSFTDHDTRYHQFLCPLKDRTGVTAYRSTCPLVAPGARD [TEP041]” registered a melting temperature in series [1] of 54.4 C. In addition, in series [2], the “purified protein yield per well” value is 427 µg. In addition, the PET hydrolysis in series [3] (setting [8]), in series [3] (setting [9]), in series [3] (setting [10]), in series [3] (setting [11]), in series [3] (setting [12]) and in series [3] (setting [13]) was less than 3 throughout. Moreover, the PET hydrolysis was less than 3 in series [3] (setting [14]); less than 3 in series [3] (setting [15]); less than 3 in series [3] (setting [4]); less than 3 in series [3] (setting [5]); 3 in series [3] (setting [6]); less than 3 in series [3] (setting [7]). For the same sequence, the PET hydrolysis in series [3] (setting [16]), in series [3] (setting [17]), in series [3] (setting [18]) and in series [3] (setting [19]) was less than 3 throughout.

Sequence “APGPSAPCSNCTRGPNPTEASLKSDRGPFTTARFSVSGFLKGFGDSTVYYPTNTTGRMGAIAVIPGYLSYESSIEWWGPRLASHGFVVMTMNTSTIYDQPDSRATQLSKALDYLIAQSNTSSSPIYNKIDSTRLGAIGWSMGGGGSLKLSTQRSLNAIIPQAPWYSGSNSFNTIKTPALILACSADTVAPVSVHASPFYNRIPGSTPKAFLEIYGGSHFCANSGYPNEDLLGLYGIAWMKRFIDFDNRYSQFLCGPNHEGDFAISDYRQNCPY [ESM096]” yielded a melting temperature in series [1] of 52 C. Besides, the “purified protein yield per well” value in series [2] was found to be 33.4 µg. In addition, the PET hydrolysis in series [3] (setting [4]) is less than 3; in series [3] (setting [5]) it was less than 3; in series [3] (setting [6]) it was 6; in series [3] (setting [7]), 22.

“ANPYERGPDPTLASVEATSGTFAYASLSVSSGNGFGGGTIYYPTSTTDGTFAGIVTCPGFTNSGSSMAWFGKVLASQGFVTLVMNPKSNLDFPDARATQMLAALDWLTNSSSVKTRIDATRLGVLGQSMGGGATLKASKTRPSLKASFATAPYNSDKDWSTNTVPQFLFGMQNDTTAAVTNHALKFYNSLPATTPKIYAELRGAGHSTATSPNTSIRRYAVSFMKRNLDNDTRYSQFLCPGPTITSSSPLSAFMSNCLF [DP080]” gave a melting temperature in series [1] of 63.1 C. In addition, the “purified protein yield per well” value in series [2] turned out to be 291 µg. Also, the PET hydrolysis in series [3] (setting [9]) is less than 3; in series [3] (setting [10]), less than 3; in series [3] (setting [11]), less than 3; in series [3] (substrate: aFilm, 40 °C, pH 8.5), 1.5 ± 2.1; in series [3] (setting [13]) it was less than 3; in series [3] (setting [14]) it was less than 3. The PET hydrolysis was less than 3 in series [3] (setting [15]); less than 3 in series [3] (substrate: aFilm, 60 °C, pH 8.5); less than 3 in series [3] (setting [5]); 2 ± 2.8 in series [3] (setting [6]); 6 in series [3] (setting [7]); 8 ± 1.4 in series [3] (setting [20]). Moreover, the PET hydrolysis was less than 3 in series [3] (setting [17]); less than 3 in series [3] (setting [18]); less than 3 in series [3] (setting [19]); less than 3 in series [3] (substrate: cryPow, 60 °C, pH 8.5).

The sequence “QSSNPYQRGPAPTERSIEASRGPFAVAQTTVSRLSATGFGGGTIYYPTDTSQGRFGGVAISPGFTALQSSIAWLGPRIASQGFIVFTIDTITTLDQPAQRGDQLLAALDYLVQRSPAAVRDRLDPTRLAVMGHSMGGGGTLEAAKKRPSLKAAIPLTGWNLDTIWNDLRVPTLVVGAQLDLIAPILTFSLPFYNTIPASTEKVYLELAGASHFAPNLPDTNIAKYSIAWLKRWVDNDTRYTQFLCPGPRFELAISNYMSSCPM [DP056]” had a melting temperature in series [1] of 56.2 C. The “purified protein yield per well” value in series [2] was 36 µg. The PET hydrolysis was less than 3 in series [3] (setting [5]), less than 3 in series [3] (setting [6]), 4 in series [3] (setting [7]) and 6 in series [3] (setting [20]).

For “ADNPYQRGPDPTRTSVTAVNGPFANTSVSVPTGHGFNGGRIYYPTDTSQGTFGAIAISPGYTALFSAELAWMGPWLASHGFVVIGIETNSRNDFDTARGTQLLAALDYLTQQSPVRDRVDPSRLAVSGHSMGGGGALSAAMRRASLKAVVGITPYSPSSNLANDRVPTMIISGQADTVVTPSYALGLYNSIPATTESVYLEVAGGDHGFMVGRSNPVLVRTMLPFLKMFIDNDTRYSQFLCPLLDNSGVVTYRSTCPLLPTDPTTPPTGTPTPTPTTPAPTTPPPTTPPGSASEIRGTQSNRCIDVPNASRNNGTRVQLYDCNRQTNQAWTYTANKQLQVYGNMC [ESM106]”, the melting temperature in series [1] came to 62.2 C. In series [2], the “purified protein yield per well” value is 392 µg. In addition, the PET hydrolysis in series [3] (setting [8]) was less than 3; in series [3] (setting [9]) it was 1.5 ± 2.1; in series [3] (setting [10]), 3.5 ± 0.71; in series [3] (setting [11]), less than 3; in series [3] (setting [12]) it was less than 3; in series [3] (setting [13]), less than 3. The PET hydrolysis is less than 3 in series [3] (setting [14]); less than 3 in series [3] (setting [15]); 9 ± 4.2 in series [3] (setting [4]); 24 ± 5.7 in series [3] (setting [5]); 28 ± 2.8 in series [3] (setting [6]); 19 ± 1.4 in series [3] (setting [7]). For the same sequence, the PET hydrolysis was less than 3 in series [3] (setting [16]), 2 ± 2.8 in series [3] (setting [17]), 4.5 ± 0.71 in series [3] (setting [18]) and less than 3 in series [3] (setting [19]).
